# Assay results: the Human Domainome abundance scans (Beltran et al. 2025)
# ± gives the uncertainty stated by the source.
# B1: CD2-associated protein, residues 1 to 59; numbered along this chain, Q9Y5K6 (parent)
# chain: MVDYIVEYDYDAVHDDELTIRVGEIIRNVKKLQEEGWLEGELNGRRGMFPDNFVKEIKR
# Variants of: B1
# Experiment: abundance fitness (aPCA) (normalised: wild type 0, dead -1); higher = more abundant; growth selection in yeast, the domain comes from the species named
# Conditions: Homo sapiens
row,Variant,abundance fitness
1,MVDYIVEYDYDARHDDELTIRVGEIIRNVKKLQEEGWLEGELNGRRGMFPDNFVKEIKR [V13R],-0.149 ± 0.077
2,MVDYIVEYDYDAWHDDELTIRVGEIIRNVKKLQEEGWLEGELNGRRGMFPDNFVKEIKR [V13W],-0.197 ± 0.13
3,MVDYIVEYDYDASHDDELTIRVGEIIRNVKKLQEEGWLEGELNGRRGMFPDNFVKEIKR [V13S],0.067 ± 0.1
4,MVDYIVEYDYDATHDDELTIRVGEIIRNVKKLQEEGWLEGELNGRRGMFPDNFVKEIKR [V13T],-0.275 ± 0.11
5,MVDYIVEYDYDAQHDDELTIRVGEIIRNVKKLQEEGWLEGELNGRRGMFPDNFVKEIKR [V13Q],-0.268 ± 0.23
6,MVDYIVEYDYDAYHDDELTIRVGEIIRNVKKLQEEGWLEGELNGRRGMFPDNFVKEIKR [V13Y],-0.328 ± 0.25
7,MVDYIVEYDYDAVHDLELTIRVGEIIRNVKKLQEEGWLEGELNGRRGMFPDNFVKEIKR [D16L],-0.13 ± 0.076
8,MVDYIVEYDYDAVHDAELTIRVGEIIRNVKKLQEEGWLEGELNGRRGMFPDNFVKEIKR [D16A],-0.045 ± 0.059
9,MVDYIVEYDYDAVHDMELTIRVGEIIRNVKKLQEEGWLEGELNGRRGMFPDNFVKEIKR [D16M],-0.073 ± 0.13
10,MVDYIVEYDYDAVHDCELTIRVGEIIRNVKKLQEEGWLEGELNGRRGMFPDNFVKEIKR [D16C],0.229 ± 0.18
11,MVDYIVEYDYDAVHDEELTIRVGEIIRNVKKLQEEGWLEGELNGRRGMFPDNFVKEIKR [D16E],-0.115 ± 0.086
12,MVDYIVEYDYDAVHDKELTIRVGEIIRNVKKLQEEGWLEGELNGRRGMFPDNFVKEIKR [D16K],-0.095 ± 0.13
13,MVDYIVEYDYDAVHDFELTIRVGEIIRNVKKLQEEGWLEGELNGRRGMFPDNFVKEIKR [D16F],-0.297 ± 0.15
14,MVDYIVEYDYDAVHDGELTIRVGEIIRNVKKLQEEGWLEGELNGRRGMFPDNFVKEIKR [D16G],-0.069 ± 0.068
15,MVDYIVEYDYDAVVDDELTIRVGEIIRNVKKLQEEGWLEGELNGRRGMFPDNFVKEIKR [H14V],-0.186 ± 0.092
16,MVDYIVEYDYDAVADDELTIRVGEIIRNVKKLQEEGWLEGELNGRRGMFPDNFVKEIKR [H14A],-0.113 ± 0.14
17,MVDYIVEYDYDAVKDDELTIRVGEIIRNVKKLQEEGWLEGELNGRRGMFPDNFVKEIKR [H14K],0.088 ± 0.15
18,MVDYIVEYDYDAVWDDELTIRVGEIIRNVKKLQEEGWLEGELNGRRGMFPDNFVKEIKR [H14W],-0.455 ± 0.17
19,MVDYIVEYDYDAVEDDELTIRVGEIIRNVKKLQEEGWLEGELNGRRGMFPDNFVKEIKR [H14E],-0.016 ± 0.13
20,MVDYIVEYDYDAVQDDELTIRVGEIIRNVKKLQEEGWLEGELNGRRGMFPDNFVKEIKR [H14Q],-0.086 ± 0.15
21,MVDYIVEYDYDAVRDDELTIRVGEIIRNVKKLQEEGWLEGELNGRRGMFPDNFVKEIKR [H14R],0.021 ± 0.091
22,MVDYIVEYDYDAVCDDELTIRVGEIIRNVKKLQEEGWLEGELNGRRGMFPDNFVKEIKR [H14C],0.152 ± 0.17
23,MVDYIVEYDYDAVLDDELTIRVGEIIRNVKKLQEEGWLEGELNGRRGMFPDNFVKEIKR [H14L],-0.217 ± 0.093

row,Variant,abundance fitness
1,MVDYIVEYDYDAVDDDELTIRVGEIIRNVKKLQEEGWLEGELNGRRGMFPDNFVKEIKR [H14D],-0.113 ± 0.18
2,MVDYIVEYDYDAVPDDELTIRVGEIIRNVKKLQEEGWLEGELNGRRGMFPDNFVKEIKR [H14P],-0.946 ± 0.26
3,MVDYIVEYDYDAVTDDELTIRVGEIIRNVKKLQEEGWLEGELNGRRGMFPDNFVKEIKR [H14T],-0.001 ± 0.12
4,MVDYIVEYDYDAVNDDELTIRVGEIIRNVKKLQEEGWLEGELNGRRGMFPDNFVKEIKR [H14N],0.09 ± 0.15
5,MVDYIVEYDYDAVGDDELTIRVGEIIRNVKKLQEEGWLEGELNGRRGMFPDNFVKEIKR [H14G],-0.031 ± 0.087
6,MVDYIVEYDYDAVHFDELTIRVGEIIRNVKKLQEEGWLEGELNGRRGMFPDNFVKEIKR [D15F],-0.325 ± 0.09
7,MVDYIVEYDYDAVHIDELTIRVGEIIRNVKKLQEEGWLEGELNGRRGMFPDNFVKEIKR [D15I],-0.415 ± 0.24
8,MVDYIVEYDYDAVHLDELTIRVGEIIRNVKKLQEEGWLEGELNGRRGMFPDNFVKEIKR [D15L],-0.142 ± 0.054
9,MVDYIVEYDYDAVHKDELTIRVGEIIRNVKKLQEEGWLEGELNGRRGMFPDNFVKEIKR [D15K],-0.078 ± 0.14
10,MVDYIVEYDYDAVHMDELTIRVGEIIRNVKKLQEEGWLEGELNGRRGMFPDNFVKEIKR [D15M],-0.305 ± 0.096
11,MVDYIVEYDYDAVHVDELTIRVGEIIRNVKKLQEEGWLEGELNGRRGMFPDNFVKEIKR [D15V],-0.038 ± 0.069
12,MVDYIVEYDYDAVHQDELTIRVGEIIRNVKKLQEEGWLEGELNGRRGMFPDNFVKEIKR [D15Q],-0.008 ± 0.11
13,MVDYIVEYDYDAVHPDELTIRVGEIIRNVKKLQEEGWLEGELNGRRGMFPDNFVKEIKR [D15P],-0.13 ± 0.2
14,MVDYIVEYDYDAVHSDELTIRVGEIIRNVKKLQEEGWLEGELNGRRGMFPDNFVKEIKR [D15S],-0.098 ± 0.06
15,MVDYIVEYDYDAVHCDELTIRVGEIIRNVKKLQEEGWLEGELNGRRGMFPDNFVKEIKR [D15C],-0.284 ± 0.17
16,MVDYIVEYDYDAVHGDELTIRVGEIIRNVKKLQEEGWLEGELNGRRGMFPDNFVKEIKR [D15G],-0.051 ± 0.12
17,MVDYIVEYDYDAVHRDELTIRVGEIIRNVKKLQEEGWLEGELNGRRGMFPDNFVKEIKR [D15R],-0.146 ± 0.076
18,MVDYIVEYDYDAVHHDELTIRVGEIIRNVKKLQEEGWLEGELNGRRGMFPDNFVKEIKR [D15H],-0.078 ± 0.14
19,MVDYIVEYDYDAVHYDELTIRVGEIIRNVKKLQEEGWLEGELNGRRGMFPDNFVKEIKR [D15Y],-0.204 ± 0.11
20,MVDYIVEYDYDAVHEDELTIRVGEIIRNVKKLQEEGWLEGELNGRRGMFPDNFVKEIKR [D15E],0.002 ± 0.094
21,MVDYIVEYDYDAVHWDELTIRVGEIIRNVKKLQEEGWLEGELNGRRGMFPDNFVKEIKR [D15W],-0.453 ± 0.13
22,MVDYIVEYDYDAVHADELTIRVGEIIRNVKKLQEEGWLEGELNGRRGMFPDNFVKEIKR [D15A],-0.011 ± 0.092
